Experimental findings from patent US20100129288A1 are described below.

For this experiment, the target named is neurofascin on purified rat DRG neurons (rat) (UniProt P97685). Put plainly: cell-based or functional assay.
Chain of UniProt P97685 (P97685 25-1240, form in doubt): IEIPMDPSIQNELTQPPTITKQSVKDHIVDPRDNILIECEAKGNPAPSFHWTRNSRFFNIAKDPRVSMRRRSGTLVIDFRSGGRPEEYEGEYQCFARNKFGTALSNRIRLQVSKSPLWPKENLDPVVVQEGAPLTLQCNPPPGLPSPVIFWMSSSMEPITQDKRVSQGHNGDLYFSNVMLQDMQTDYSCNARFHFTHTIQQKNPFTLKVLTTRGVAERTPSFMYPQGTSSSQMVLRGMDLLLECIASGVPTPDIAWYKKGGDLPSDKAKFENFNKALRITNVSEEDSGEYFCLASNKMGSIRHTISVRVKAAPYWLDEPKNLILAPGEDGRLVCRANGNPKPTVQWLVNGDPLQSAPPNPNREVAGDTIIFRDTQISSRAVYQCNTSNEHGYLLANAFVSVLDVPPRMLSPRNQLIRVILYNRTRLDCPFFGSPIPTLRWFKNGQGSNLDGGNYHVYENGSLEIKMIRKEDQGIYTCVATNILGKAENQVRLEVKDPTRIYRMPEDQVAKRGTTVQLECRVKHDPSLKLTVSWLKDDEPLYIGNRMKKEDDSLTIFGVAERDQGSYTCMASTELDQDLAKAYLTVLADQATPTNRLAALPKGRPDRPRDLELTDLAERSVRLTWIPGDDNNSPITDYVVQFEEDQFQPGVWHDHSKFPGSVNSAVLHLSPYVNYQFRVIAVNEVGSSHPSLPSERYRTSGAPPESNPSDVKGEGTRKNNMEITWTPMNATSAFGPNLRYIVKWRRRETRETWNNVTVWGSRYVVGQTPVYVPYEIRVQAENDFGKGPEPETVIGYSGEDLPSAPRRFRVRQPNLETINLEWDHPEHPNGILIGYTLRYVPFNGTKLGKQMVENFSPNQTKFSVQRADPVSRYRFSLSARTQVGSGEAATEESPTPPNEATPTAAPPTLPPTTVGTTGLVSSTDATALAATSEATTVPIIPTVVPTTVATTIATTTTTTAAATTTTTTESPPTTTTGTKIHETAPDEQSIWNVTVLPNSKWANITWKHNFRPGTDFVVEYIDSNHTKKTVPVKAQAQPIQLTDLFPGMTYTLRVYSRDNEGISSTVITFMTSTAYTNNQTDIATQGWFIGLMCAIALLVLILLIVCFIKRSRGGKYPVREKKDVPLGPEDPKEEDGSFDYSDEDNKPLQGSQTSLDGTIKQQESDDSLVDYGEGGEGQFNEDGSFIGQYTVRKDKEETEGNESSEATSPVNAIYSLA

B1: OLF-Fc (Fc-fusion protein containing the olfactomedin domain of gliomedin) (Fc fusion, part only; not given: human Fc, part only)
chain, part: NDDTLVGRADEKVNERHSPQTEPMITSIGNPAQVLKVKETFGTWLRESANRSDDRIWVTEHFSGIMVKEFEDLPALLNSSFTLLHLPHYFHGCGHAVYNNSLYYHKGGSNTIVRFEFGKETPQTLKLEDALYFDRKYLFANSKTYFNIAVDEKGLWIIYASSVDGSSILVAQLDERTFSVLRHINTTYPKSKAGNAFIAQGILYVTDTKDTRVTFAFDLLRGKQINANFGLRMSQSVLAMLSYNMRDQHLYSWEDGHLMLYPVHFSSTAPS
B1 displayed an OLF-Fc clusters co-localized with neurofascin clusters of 96%.
